The values that follow come from article doi:10.1101/2022.03.14.484276.

Usually stoichiometry N stands for a count of units in the complex or per binding partner.

The target of this test is BsaXI S subunit (specificity subunit), WT TRD1-CR1-TRD2-CR2 (Bacillus stearothermophilus 25B (Geobacillus sp. 25B)). The test is described as follows: co-purification through chromatography columns.

In turn, “BsaXI RM subunit (restriction-modification fusion subunit) (enzyme)” had a stoichiometry N of 2 RM per S.
